This note sets out measurements from US20180038860A1 (published 2018).

Test in all cases: cell-based or functional assay
Experiment [1] concerns the target hCCR9 (human) (UniProt P51686).
Experiment [2] addresses T1, CCR6 on lymphocytes in blood of healthy donors (human) (UniProt P51684).
T1 sequence (looked up): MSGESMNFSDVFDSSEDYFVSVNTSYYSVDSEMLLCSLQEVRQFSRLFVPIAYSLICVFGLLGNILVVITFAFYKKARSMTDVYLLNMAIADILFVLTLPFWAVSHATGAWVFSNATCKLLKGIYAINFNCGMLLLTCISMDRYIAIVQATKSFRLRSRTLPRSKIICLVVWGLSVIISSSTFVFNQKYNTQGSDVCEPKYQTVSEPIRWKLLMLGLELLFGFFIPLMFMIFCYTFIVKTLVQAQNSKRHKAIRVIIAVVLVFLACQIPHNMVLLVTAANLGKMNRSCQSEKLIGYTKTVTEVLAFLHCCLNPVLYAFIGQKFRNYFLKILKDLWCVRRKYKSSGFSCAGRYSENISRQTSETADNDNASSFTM

Experiment [3] has as its target hCXCR3 (human) (UniProt P49682).
In experiment [4] the target is hCCR2b (human) (UniProt P41597).
hCCR2b (human), sequence (P41597 other isoform, or with tags, fused parts or gaps limits assumed): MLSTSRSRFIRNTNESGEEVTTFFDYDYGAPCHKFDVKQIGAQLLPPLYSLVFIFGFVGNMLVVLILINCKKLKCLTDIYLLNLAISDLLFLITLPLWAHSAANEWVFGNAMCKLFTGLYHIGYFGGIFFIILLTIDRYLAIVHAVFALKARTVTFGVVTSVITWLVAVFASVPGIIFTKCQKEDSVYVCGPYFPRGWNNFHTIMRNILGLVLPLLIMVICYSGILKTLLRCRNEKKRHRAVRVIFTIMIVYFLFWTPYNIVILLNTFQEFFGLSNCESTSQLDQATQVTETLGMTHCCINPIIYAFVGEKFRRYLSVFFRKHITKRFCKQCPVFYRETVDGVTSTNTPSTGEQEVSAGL
Experiment [5] deals with T2, hCCR6 (human) (UniProt P51684).
T2 sequence (looked up): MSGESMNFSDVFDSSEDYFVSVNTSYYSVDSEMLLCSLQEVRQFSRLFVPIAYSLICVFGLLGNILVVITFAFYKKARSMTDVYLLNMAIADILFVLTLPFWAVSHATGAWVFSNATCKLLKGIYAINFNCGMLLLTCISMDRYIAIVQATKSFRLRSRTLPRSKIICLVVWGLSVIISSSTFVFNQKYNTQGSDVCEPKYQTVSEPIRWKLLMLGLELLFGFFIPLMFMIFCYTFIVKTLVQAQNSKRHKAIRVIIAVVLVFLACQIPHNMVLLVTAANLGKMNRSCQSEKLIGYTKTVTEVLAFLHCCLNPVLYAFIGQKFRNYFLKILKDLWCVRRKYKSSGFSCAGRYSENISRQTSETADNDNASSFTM

Experiment [6] deals with hCCR7 (human) (UniProt P32248).
hCCR7 (human), sequence (P32248 25-378 limits assumed): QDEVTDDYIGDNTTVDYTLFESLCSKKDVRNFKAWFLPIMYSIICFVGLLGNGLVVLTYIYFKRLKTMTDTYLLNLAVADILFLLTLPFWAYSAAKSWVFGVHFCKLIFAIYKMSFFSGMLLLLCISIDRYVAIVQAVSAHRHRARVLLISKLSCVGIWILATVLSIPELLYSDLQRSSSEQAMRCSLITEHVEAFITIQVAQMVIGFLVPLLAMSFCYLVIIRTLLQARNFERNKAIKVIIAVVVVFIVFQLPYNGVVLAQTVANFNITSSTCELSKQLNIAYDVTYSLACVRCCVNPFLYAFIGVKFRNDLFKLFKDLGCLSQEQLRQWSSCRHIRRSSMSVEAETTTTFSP
Experiment [7] concerns the target T3, hCCR4 (human, UniProt P51679 1-360).
T3 sequence (looked up): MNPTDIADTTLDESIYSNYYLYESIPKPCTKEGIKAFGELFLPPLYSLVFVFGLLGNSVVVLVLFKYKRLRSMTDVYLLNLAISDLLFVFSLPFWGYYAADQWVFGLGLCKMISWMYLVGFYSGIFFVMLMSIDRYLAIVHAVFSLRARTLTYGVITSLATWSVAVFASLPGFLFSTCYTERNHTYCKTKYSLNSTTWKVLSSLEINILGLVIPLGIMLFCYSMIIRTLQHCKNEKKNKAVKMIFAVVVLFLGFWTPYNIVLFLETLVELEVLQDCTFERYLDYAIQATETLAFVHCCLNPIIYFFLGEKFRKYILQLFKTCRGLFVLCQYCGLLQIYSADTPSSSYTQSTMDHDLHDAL

The target of experiment [8] is T4, hCCR10 (human, UniProt P46092 1-362).
T4 sequence (looked up): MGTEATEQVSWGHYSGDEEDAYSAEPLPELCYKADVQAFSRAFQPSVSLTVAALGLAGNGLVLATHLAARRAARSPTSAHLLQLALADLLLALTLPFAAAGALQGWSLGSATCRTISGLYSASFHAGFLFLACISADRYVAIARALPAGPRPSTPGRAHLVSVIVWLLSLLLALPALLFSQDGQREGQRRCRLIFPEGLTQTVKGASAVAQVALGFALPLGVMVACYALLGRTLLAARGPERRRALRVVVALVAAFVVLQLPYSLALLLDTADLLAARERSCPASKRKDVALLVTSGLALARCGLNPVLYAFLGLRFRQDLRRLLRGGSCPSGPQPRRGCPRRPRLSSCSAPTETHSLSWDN

In experiment [9] the target is hCXCR3 (human) (UniProt P49682). The source holds these as a separate data set.
hCXCR3 (human), sequence (P49682 whole entry): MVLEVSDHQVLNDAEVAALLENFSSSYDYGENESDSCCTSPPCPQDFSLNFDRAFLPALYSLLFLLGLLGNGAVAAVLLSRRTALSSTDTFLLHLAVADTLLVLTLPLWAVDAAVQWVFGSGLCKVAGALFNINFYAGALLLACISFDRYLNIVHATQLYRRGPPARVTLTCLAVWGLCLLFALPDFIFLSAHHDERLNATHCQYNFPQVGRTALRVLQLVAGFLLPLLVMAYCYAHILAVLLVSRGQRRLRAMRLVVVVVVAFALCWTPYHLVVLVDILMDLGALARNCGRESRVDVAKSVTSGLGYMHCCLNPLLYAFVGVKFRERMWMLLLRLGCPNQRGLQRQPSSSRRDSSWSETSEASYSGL

Where two headings read alike, the source gives them in different places. Bridge positions count the residues as written; N and C are the ends. Side chains are listed from the residue outwards. * marks the point of attachment. Biotin = O=C1N[C@H]2[C@H](CS[C@H]2CCCCC(=O)*)N1; AEEA = NCCOCCOCC(=O)O Some results are limits rather than exact numbers.

hCCR9 (human), sequence (P51686 whole entry): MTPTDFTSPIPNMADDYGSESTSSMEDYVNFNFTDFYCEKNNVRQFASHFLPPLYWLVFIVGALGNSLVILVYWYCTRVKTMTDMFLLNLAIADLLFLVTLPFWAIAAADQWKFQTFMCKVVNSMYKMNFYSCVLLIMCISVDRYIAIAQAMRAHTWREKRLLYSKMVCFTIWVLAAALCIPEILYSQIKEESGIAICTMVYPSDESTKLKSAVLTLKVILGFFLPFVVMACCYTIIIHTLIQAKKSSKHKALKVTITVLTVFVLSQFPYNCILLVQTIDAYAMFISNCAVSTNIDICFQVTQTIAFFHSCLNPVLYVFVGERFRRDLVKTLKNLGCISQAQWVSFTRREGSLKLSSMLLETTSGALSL

Take “biotinTECK(Met to Nleu substitution) (CCL25), derivatised at the ε-amino side chain functionality of Lys72 with PEG-Biotin (from UniProt O15444 25-97) (ligand)”: the EC50, Aequorin assay (agonist activity) in experiment [1] was 63.6 nM.

“biotinylated MIP-3alpha coupled matrix (from UniProt P78556 27-96) (ligand)” showed a reduction of CCR6-expressing cells after column passage (flow cytometry) in [2] below 15%.

In the case of “recombinant native IP-10 (from UniProt P02778 22-98) (ligand)”, the EC50, Aequorin assay (agonist activity) in experiment [3] was 4.4 nM.

In the case of “recombinant native MCP-2 (from UniProt P80075 24-99) (ligand)”, the EC50, Aequorin assay (partial agonist) in experiment [4] amounted to 23.5 nM.

In experiment [5], “recombinant native MIP-3α (from UniProt P78556 27-96) (ligand)” returned an EC50, Aequorin assay (agonist activity) of 1 nM.

“recombinant native MIP-3β (from UniProt Q99731 22-98) (ligand)” displayed an EC50, Aequorin assay (agonist activity) in experiment [6] of 1.6 nM.

In experiment [7], “recombinant native TARC (from UniProt Q92583 24-94) (ligand)” returned an EC50, Aequorin assay (agonist activity) of 2.6 nM.

“recombinant native TECK (from UniProt O15444 24-150) (ligand)” gave an EC50, Aequorin assay (agonist activity) in [1] of 67.9 nM.

B1: biotinCTAC (CCL27), CTAC derivatised at the ε-amino side chain functionality of Lys(87) with PEG-Biotin (ligand)
chain: FLLPPSTACCTQLYRKPLSDKLLRKVIQVELQEADGDCHLQAFVLHLAQRSICIHPQNPSLSQWFEHQERKLHGTLPKLNFGMLRKK([AEEA-Biotin])G-OH
modifications: disulfide 10-53, 9-38; ends not checked; also: TFA salt
Turning to B1, the “EC50, Aequorin assay (agonist activity)” value in experiment [8] worked out at 49.4 nM.

B2: recombinant native MDC (ligand, UniProt O00626 25-93, looked up)
chain: GPYGANMEDSVCCRDYVRYRLPLRVVKHFYWTSDSCPRPGVVLLTFRDKEICADPRVPWVKMILNKLSQ
In experiment [7], B2 gave an EC50, Aequorin assay (agonist activity) of 3.6 nM.

B3: biotinTARC (CCL17), TARC derivatised at the ε-amino side chain functionality of Lys(72) with PEG-Biotin (ligand)
chain: ARGTNVGRECCLEYFKGAIPLRKLKTWYQTSEDCSRDAIVFVTVQGRAICSDPNNKRVKNAVKYLQSLERSK([AEEA-Biotin])-NH2
modifications: disulfide 10-34, 11-50; ends not checked; also: TFA salt
Take B3: the “EC50, Aequorin assay (agonist activity)” value in [7] is 3.1 nM.

B4: recombinant native CTAC (ligand, UniProt Q9Y4X3 25-112, looked up)
chain: FLLPPSTACCTQLYRKPLSDKLLRKVIQVELQEADGDCHLQAFVLHLAQRSICIHPQNPSLSQWFEHQERKLHGTLPKLNFGMLRKMG
Turning to B4, the EC50, Aequorin assay (agonist activity) in experiment [8] was found to be 33.5 nM.

B5: recombinant native ITAC (ligand, UniProt O14625 22-94, looked up)
chain: FPMFKRGRCLCIGPGVKAVKVADIEKASIMYPSNNCDKIEVIITLKENKGQRCLNPKSKQARLIIKKVERKNF
For the molecule B5, the EC50, Aequorin assay (agonist activity) in experiment [9] was 0.7 nM.
